First the molecules themselves.
B1: Hex-[Cys(3MeBn)-Pro-Pro-Thr-Gln-Phe-Cys]-Asp-Ttds-Ape-NH-DOTA' (peptide)
peptide: Hexanoyl-CPPTQFCD
modifications: linker 1-7 via mXylylene; not fully specified (C-terminus); printed as Hex-[Cys(3MeBn)-Pro-Pro-Thr-Gln-Phe-Cys]-Asp-Ttds-Ape(DOTA)
B2: Hex-[Cys(3MeBn)-Pro-Pro-Thr-Glu-Phe-Cys]-Asp-His-Phe-Arg-Asp-NH2 (peptide)
peptide: Hexanoyl-CPPTEFCDHFRD-NH2
modifications: linker 1-7 via mXylylene
SMILES: CCCCCC(=O)N[C@H]1CSCc2cccc(c2)CSC[C@@H](C(=O)N[C@@H](CC(=O)O)C(=O)N[C@@H](Cc2c[nH]cn2)C(=O)N[C@@H](Cc2ccccc2)C(=O)N[C@@H](CCCNC(=N)N)C(=O)N[C@@H](CC(=O)O)C(N)=O)NC(=O)[C@H](Cc2ccccc2)NC(=O)[C@H](CCC(=O)O)NC(=O)[C@H]([C@@H](C)O)NC(=O)[C@@H]2CCCN2C(=O)[C@@H]2CCCN2C1=O
B3: Hex-[Cys(3MeBn)-Pro-Pro-Thr-Gln-Phe-Cys]-Asp-NH2 (peptide)
peptide: Hexanoyl-CPPTQFCD-NH2
modifications: linker 1-7 via mXylylene
SMILES: CCCCCC(=O)N[C@H]1CSCc2cccc(c2)CSC[C@@H](C(=O)N[C@@H](CC(=O)O)C(N)=O)NC(=O)[C@H](Cc2ccccc2)NC(=O)[C@H](CCC(N)=O)NC(=O)[C@H]([C@@H](C)O)NC(=O)[C@@H]2CCCN2C(=O)[C@@H]2CCCN2C1=O
B4: PentylNH-urea-[Cys(3MeBn)-Pro-Pro-Thr-Gln-Phe-Cys]-Asp-NH2 (peptide)
peptide: {PentylNH‑urea}-CPPTQFCD-NH2
modifications: linker 1-7 via mXylylene
SMILES: CCCCCNC(=O)N[C@H]1CSCc2cccc(c2)CSC[C@@H](C(=O)N[C@@H](CC(=O)O)C(N)=O)NC(=O)[C@H](Cc2ccccc2)NC(=O)[C@H](CCC(N)=O)NC(=O)[C@H]([C@@H](C)O)NC(=O)[C@@H]2CCCN2C(=O)[C@@H]2CCCN2C1=O
B5: Hex-[Cys(3MeBn)-Pro-Pro-Thr-Gln-Phe-Cys]-Asp-Ape-NH-DOTA' (peptide)
peptide: Hexanoyl-CPPTQFCD
modifications: linker 1-7 via mXylylene; not fully specified (C-terminus); printed as Hex-[Cys(3MeBn)-Pro-Pro-Thr-Gln-Phe-Cys]-Asp-Ape(DOTA)
B6: Ac-[Cys(3MeBn)-Pro-Pro-Thr-Glu-Phe-Cys]-Asp-His-Phe-Arg-Asp-NH2 (peptide)
peptide: Ac-CPPTEFCDHFRD-NH2
modifications: linker 1-7 via mXylylene
SMILES: CC(=O)N[C@H]1CSCc2cccc(c2)CSC[C@@H](C(=O)N[C@@H](CC(=O)O)C(=O)N[C@@H](Cc2c[nH]cn2)C(=O)N[C@@H](Cc2ccccc2)C(=O)N[C@@H](CCCNC(=N)N)C(=O)N[C@@H](CC(=O)O)C(N)=O)NC(=O)[C@H](Cc2ccccc2)NC(=O)[C@H](CCC(=O)O)NC(=O)[C@H]([C@@H](C)O)NC(=O)[C@@H]2CCCN2C(=O)[C@@H]2CCCN2C1=O
B7: Hex-[Cys(3MeBn)-Pro-Pro-Thr-Glu-Phe-Cys]-Asp-NH2 (peptide)
peptide: Hexanoyl-CPPTEFCD-NH2
modifications: linker 1-7 via mXylylene
SMILES: CCCCCC(=O)N[C@H]1CSCc2cccc(c2)CSC[C@@H](C(=O)N[C@@H](CC(=O)O)C(N)=O)NC(=O)[C@H](Cc2ccccc2)NC(=O)[C@H](CCC(=O)O)NC(=O)[C@H]([C@@H](C)O)NC(=O)[C@@H]2CCCN2C(=O)[C@@H]2CCCN2C1=O
B8: Hex-[Cys(tMeBn(DOTA-AET))-Pro-Pro-Thr-Gln-Phe-Cys]-asp-NH2 (peptide)
peptide: CPPTQFCD
modifications: N-terminal Hex (hexanoyl); Cys1-Cys7 bridged by tMeBn(DOTA-AET) (thioethers); D-Asp8 (asp); C-terminal amide
B9: Pentyl-SO2-[Cys(3MeBn)-Pro-Pro-Thr-Gln-Phe-Cys]-Asp-NH2 (peptide)
peptide: Pentanesulfonyl-CPPTQFCD-NH2
modifications: linker 1-7 via mXylylene
SMILES: CCCCCS(=O)(=O)N[C@H]1CSCc2cccc(c2)CSC[C@@H](C(=O)N[C@@H](CC(=O)O)C(N)=O)NC(=O)[C@H](Cc2ccccc2)NC(=O)[C@H](CCC(N)=O)NC(=O)[C@H]([C@@H](C)O)NC(=O)[C@@H]2CCCN2C(=O)[C@@H]2CCCN2C1=O
B10: Hex-[Cys(tMeBn(LuDOTA-AET))-Pro-Pro-Thr-Gln-Phe-Cys]-OH (peptide)
peptide: Hexanoyl-CPPTQFC-OH
modifications: linker 1-7 via tMeBn(LuDOTA-AET); reading uncertain; also: Lu-DOTA complex, printed as Hex-[Cys(tMeBn(LuDOTA-AET))-Pro-Pro-Thr-Gln-Phe-Cys]-OH

Numbered stars: 1 amine (or outer) side, 2 acyl side, 3 side chain; on linkers, the order of the positions; unused ones are H or OH. Bridge positions count the residues as written; N and C are the ends. Ends that are not written are not given here. * marks the point of attachment. Ttds = 1,13-diamino-4,7,10-trioxatridecan-succinamic acid, NCCCOCCOCCOCCCNC(=O)CCC(=O)*; tMeBn(DOTA-AET) = Cys-Cys bridge (thioethers) carrying DOTA-AET; tMeBn(DOTA-PP) = Cys-Cys bridge (thioethers) carrying DOTA-PP; DOTA = O=C(O)CN1CCN(CC(=O)O)CCN(CC(=O)*)CCN(CC(=O)O)CC1; mXylylene = c1cc(C[*:1])cc(C[*:2])c1; tMeBn(LuDOTA-AET) = not defined here; 2Lut = Cys-Cys bridge (thioethers); 3Lut = Cys-Cys bridge (thioethers); Pentanesulfonyl = CCCCCS(=O)(=O)*; PentylNH‑urea = CCCCCNC(=O)*; Hexanoyl = CCCCCC(=O)*

Experimental findings from patent US20220315554A1, “COMPOUNDS COMPRISING A […] LIGAND AND USE THEREOF” (priority 2019, published 2022) are described below.

For the first assay, the target named is T1, Recombinant human FAP (R&D systems, #3715-SE) (human).
T1 sequence: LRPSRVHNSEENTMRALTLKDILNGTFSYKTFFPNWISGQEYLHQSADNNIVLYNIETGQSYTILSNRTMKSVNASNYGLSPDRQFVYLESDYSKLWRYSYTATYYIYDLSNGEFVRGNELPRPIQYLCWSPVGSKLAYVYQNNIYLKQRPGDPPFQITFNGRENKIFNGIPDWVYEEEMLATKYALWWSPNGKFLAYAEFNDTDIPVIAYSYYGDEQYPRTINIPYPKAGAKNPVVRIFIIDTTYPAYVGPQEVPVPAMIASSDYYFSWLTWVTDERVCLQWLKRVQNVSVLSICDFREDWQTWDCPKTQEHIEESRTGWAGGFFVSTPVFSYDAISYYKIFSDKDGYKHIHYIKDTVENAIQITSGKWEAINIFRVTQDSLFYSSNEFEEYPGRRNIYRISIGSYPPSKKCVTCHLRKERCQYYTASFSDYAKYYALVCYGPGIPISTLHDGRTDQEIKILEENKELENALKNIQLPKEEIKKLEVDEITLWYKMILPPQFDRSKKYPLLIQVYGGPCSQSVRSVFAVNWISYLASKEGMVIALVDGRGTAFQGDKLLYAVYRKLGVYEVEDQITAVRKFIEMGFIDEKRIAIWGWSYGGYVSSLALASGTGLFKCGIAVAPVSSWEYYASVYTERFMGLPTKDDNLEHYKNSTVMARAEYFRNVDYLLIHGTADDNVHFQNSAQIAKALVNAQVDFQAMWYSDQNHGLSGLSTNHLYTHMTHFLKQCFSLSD
Experiment: not given
Conditions: not given
With B1, the pIC50 Category (Activity) is more than 8 pIC50.
Same read-out and setting: the result for Hexanoyl-CPPTEFC-NH2 (linker 1-7 via tMeBn(DOTA-AET)) [Hex-[Cys(tMeBn(DOTA-AET))-Pro-Pro-Thr-Glu-Phe-Cys]-NH2] reads more than 8 pIC50; that for B2, more than 8 pIC50.
On to B3, for which the pIC50 Category (Activity) is more than 8 pIC50.
On the same count and under the same terms, with B4 the figure was more than 8 pIC50; with Hexanoyl-CPPTQFCD-NH2 (linker 1-7 via 2Lut) [Hex-[Cys(2Lut)-Pro-Pro-Thr-Gln-Phe-Cys]-Asp-NH2], more than 8 pIC50.
In the case of B5, the pIC50 Category (Activity) is more than 8 pIC50.
On the same count and under the same terms, with {DOTA-Ttds}-LCPPTEFCDHFRD-NH2 (linker 2-8 via mXylylene) [DOTA-Ttds-Leu-[Cys(3MeBn)-Pro-Pro-Thr-Glu-Phe-Cys]-Asp-His-Phe-Arg-Asp-NH2] the figure was more than 8 pIC50; with Hexanoyl-CPPTQFCD-NH2 (linker 1-7 via tMeBn(GaDOTA-PP)) [Hex-[Cys(tMeBn(GaDOTA-PP))-Pro-Pro-Thr-Gln-Phe-Cys]-Asp-NH2], more than 8 pIC50.
Same read-out and setting: the result for Hexanoyl-CPPTQFCD-NH2 (linker 1-7 via tMeBn(EuDOTA-PP); also: Eu-DOTA complex) [Hex-[Cys(tMeBn(EuDOTA-PP))-Pro-Pro-Thr-Gln-Phe-Cys]-Asp-NH2] reads more than 8 pIC50; that for Hexanoyl-CPPTQFCD-NH2 (linker 1-7 via tMeBn(InDOTA-PP); also: In-DOTA complex) [Hex-[Cys(tMeBn(InDOTA-PP))-Pro-Pro-Thr-Gln-Phe-Cys]-Asp-NH2], more than 8 pIC50; that for Hexanoyl-CPPTQFCD-NH2 (linker 1-7 via tMeBn(LuDOTA-PP); also: Lu-DOTA complex) [Hex-[Cys(tMeBn(LuDOTA-PP))-Pro-Pro-Thr-Gln-Phe-Cys]-Asp-NH2], more than 8 pIC50.
On to Hexanoyl-CPPTQFCS-OH (linker 1-7 via tMeBn(DOTA-AET)) [Hex-[Cys(tMeBn(DOTA-AET))-Pro-Pro-Thr-Gln-Phe-Cys]-Ser-OH], for which the pIC50 Category (Activity) is more than 8 pIC50.
The same measure, in the same setting: with B6 the figure was more than 8 pIC50; with B7, more than 8 pIC50.
Consider B8, for which the pIC50 Category (Activity) is more than 8 pIC50.
Still for that read-out and setting: the result for B9 reads more than 8 pIC50; that for Hexanoyl-CPPTQFCD-OH (linker 1-7 via tMeBn(DOTA-AET)) [Hex-[Cys(tMeBn(DOTA-AET))-Pro-Pro-Thr-Gln-Phe-Cys]-Asp-OH], more than 8 pIC50; that for Pentanesulfonyl-CPPTQFCD-NH2 (linker 1-7 via tMeBn(DOTA-PP)) [Pentyl-SO2-[Cys(tMeBn(DOTA-PP))-Pro-Pro-Thr-Gln-Phe-Cys]-Asp-NH2], more than 8 pIC50.
Still for that read-out and setting: with Hexanoyl-CPPTQFCD-NH2 (linker 1-7 via tMeBn(DOTA-AET)) [Hex-[Cys(tMeBn(DOTA-AET))-Pro-Pro-Thr-Gln-Phe-Cys]-Asp-NH2] the figure was more than 8 pIC50; with Hexanoyl-CPPTQFCD-NH2 (linker 1-7 via 3Lut) [Hex-[Cys(3Lut)-Pro-Pro-Thr-Gln-Phe-Cys]-Asp-NH2], more than 8 pIC50.

The next assay concerns the target human fibroblast activation protein (FAP) on FAP-expressing human WI-38 fibroblasts (human). Kind of assay: competition FACS, WI-38 cells, vs Cy5-labeled compound; A: pIC50 >8.0. Conditions: remark: other sources report otherwise.
B10 registered a pIC50 Category (FACS) of more than 8 pIC50.
Hexanoyl-CPPTQFC-OH (linker 1-7 via tMeBn(InDOTA-AET); also: In-DOTA complex) [Hex-[Cys(tMeBn(InDOTA-AET))-Pro-Pro-Thr-Gln-Phe-Cys]-OH]: the pIC50 Category (FACS) is more than 8 pIC50.
Pentanesulfonyl-CPPTQFC-OH (linker 1-7 via tMeBn(DOTA-AET)) [Pentyl-SO2-[Cys(tMeBn(DOTA-AET))-Pro-Pro-Thr-Gln-Phe-Cys]-OH]: the pIC50 Category (FACS) is more than 8 pIC50.
Same read-out and setting: with Hexanoyl-CPPTQFC-NH2 (linker 1-7 via tMeBn(DOTA-AET)) [Hex-[Cys(tMeBn(DOTA-AET))-Pro-Pro-Thr-Gln-Phe-Cys]-NH2] the figure was more than 8 pIC50; with B7, more than 8 pIC50.
In turn, Hexanoyl-CPPTQFC-NH2 (linker 1-7 via tMeBn(InDOTA-AET); also: In-DOTA complex) [Hex-[Cys(tMeBn(InDOTA-AET))-Pro-Pro-Thr-Gln-Phe-Cys]-NH2] yielded a pIC50 Category (FACS) of more than 8 pIC50.
Still for that read-out and setting: with Hexanoyl-CPPTQFC-OH (linker 1-7 via tMeBn(DOTA-AET)) [Hex-[Cys(tMeBn(DOTA-AET))-Pro-Pro-Thr-Gln-Phe-Cys]-OH] the figure was more than 8 pIC50; with Hexanoyl-CPPTQFC-OH (linker 1-7 via tMeBn(EuDOTA-AET); also: Eu-DOTA complex) [Hex-[Cys(tMeBn(EuDOTA-AET))-Pro-Pro-Thr-Gln-Phe-Cys]-OH], more than 8 pIC50.
